Legend:
[1] = molecular target: Endogenous mouse SIRPα of wildtype C57BL/6 mice (mouse (C57BL/6)) (UniProt P97797); experiment: flow cytometry; CD47 protein on peritoneal cavity cells of wildtype C57BL/6 mice, detected with human anti-CD47 antibody and AF647 anti-hIgG
[2] = molecular target: Endogenous mouse SIRPα of wildtype BALB/c mice (mouse (BALB/c)) (UniProt P97797); experiment: flow cytometry; CD47 protein on peritoneal cavity cells of wildtype BALB/c mice, detected with human anti-CD47 antibody and AF647 anti-hIgG

UniProt P97797, sequence (P97797 32-513): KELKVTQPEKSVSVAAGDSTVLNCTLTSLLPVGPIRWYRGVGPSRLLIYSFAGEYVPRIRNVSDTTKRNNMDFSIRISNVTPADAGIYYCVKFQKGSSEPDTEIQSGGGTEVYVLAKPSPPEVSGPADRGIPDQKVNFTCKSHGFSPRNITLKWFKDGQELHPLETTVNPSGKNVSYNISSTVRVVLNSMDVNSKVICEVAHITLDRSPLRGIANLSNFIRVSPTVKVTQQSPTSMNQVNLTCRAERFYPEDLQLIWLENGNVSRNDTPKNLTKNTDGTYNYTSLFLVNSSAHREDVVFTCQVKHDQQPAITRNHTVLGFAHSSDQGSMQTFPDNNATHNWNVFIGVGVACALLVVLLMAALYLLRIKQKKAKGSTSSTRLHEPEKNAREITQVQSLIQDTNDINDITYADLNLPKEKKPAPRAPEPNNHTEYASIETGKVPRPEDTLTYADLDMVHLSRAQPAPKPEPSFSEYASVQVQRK

Mouse CD47 proteins (added to peritoneal cavity cells, Example 16) (ligand)
geometric mean of flow cytometry signal [1]: 100 | geometric mean of flow cytometry signal [2]: 100
